B1: scFv mother clone 17N16 (scFv)
scFv: QVQLQQSGPGLVKPSQTLSLTCAISGDSVSSTSAAWNWIRQSPSRGLEWLGRTYYRSKWYNDYAVSVKSRITINPDTSKNQFSLQLNSVTPEDTAVYYCARDPFGVPFDIWGQGTMVTVSSKLSGSASAPKLEEGEFSEARVSYVLTQPPSVSVAPGQTARITCGGNNIGSKNVHWYQQKPGQAPVLVVYDDSDRPSGIPERFSGSNSGNTATLTVSRVEAGDEADYYCQVWDTTTDHVVFGGGTKLTVLAAAGSEQKLISEEDLNSHHHHHH
notes: also called 17N16mc; 17N16m
B2: scFv mutagenesis clone #90 of 17D20 (scFv)
scFv: QVTLKESGPVLVKPTETLTLTCTVSGFSLSRGKMGVSWIRQPPGKALEWLAHIFSSDEKSYRTSLKSRLTISKDTSKNQVVLTMTNMDPVDTATYYCARIRPGGIDYWGQGTLVTVSSKLSGSASAPKLEEGEFSEARVQPVLTQPPSVSVSPGQTASITCSGDKLGDKFAYWYQQKPGHSPVLVIYQDNKRPSGIPGRFSGSNSGNTATLTISGTQAMDEADYYCQAWDSSTAVFGTGTKVTVLAAAGSEQKLISEEDLNSHHHHHH
B3: scFv mother clone 4D9 (scFv)
scFv: QITLKESGPVLVKPTETLTLTCTVSGFSLSNARMGVSWIRQPPGKALEWLAHIFSNDEKSYSTSLKSRLTISKDTSKSQVVLTMTNMDPVDTATYYCARMRYSSSLYGMDVWGQGTRVTVSSKLSGSASAPKLEEGEFSEARVSYELIQPPSVSVSPGQTASITCSGDKLGDKYVSWYQQKPGRSPVLVIYRDTKRPSGIPERFSGSNSGNTATLTISGTQAMDEADYYCQAWDSSTVVFGGGTKLTVLAAAGSEQKLISEEDLNSHHHHHH
notes: also called 4D9 (18L16)
B4: scFv daughter clone 17N16m_d17N9 (scFv)
scFv: QVQLQQSGPGLVKPSQTLSLTCAISGDSVSSTSAAWNWIRQSPSRGLEWLGRTYYRSKWYNDYAVSVKSRITINPDTSKNQFSLQLNSVTPEDTAVYYCARDPFGVPFDIWGQGTMVTVSSKLSGSASAPKLEEGEFSEARVSYELIQPPSVSVAPGQTATITCAGDNLGKKRVHWYQQRPGQAPVLVIYDDSDRPSGIPDRFSASNSGNTATLTITRGEAGDEADYYCQVWDIATDHVVFGGGTKLTVLAAAGSEQKLISE
notes: also called 17N9 daughter clone

How the values were obtained:
human MASP-2 [1] = target: T1, human MASP-2 (human, UniProt O00187 16-686); assay: cell-based or functional assay
human MASP-2 [2] = target: T1, human MASP-2; assay: cell-based or functional assay; remark: listed apart in the source
[3] = target: T2, human MASP-2A (catalytically inactive human MASP-2, Ser618 to Ala618) (human, UniProt O00187 16-686); assay: ELISA, purified scFv titrated on physically adsorbed human MASP-2A
T2 construct: the ELISA and Biacore methods say only 'MASP-2A', so a tag may have been present; also called huMASP2A; huMASP-2A

human MASP-2 [4] = target: T1, human MASP-2; assay: cell-based or functional assay; remark: listed apart in the source
human MASP-2 [5] = target: T1, human MASP-2; assay: cell-based or functional assay; remark: listed apart in the source
[6] = target: T3, African Green monkey MASP-2 (in African Green monkey serum) (African Green monkey); assay: cell-based or functional assay
[7] = target: T2, human MASP-2A (catalytically inactive …); assay: ELISA on adsorbed human MASP-2A, purified scFv monomer
[8] = target: T2, human MASP-2A (catalytically inactive …); assay: SPR (Biacore), MASP-2A amine coupled to CM5 chip, scFv monomer in solution
human MASP-2 [9] = target: T1, human MASP-2; assay: cell-based or functional assay; remark: listed apart in the source
[10] = target: T3, African Green monkey MASP-2 (in African …); assay: cell-based or functional assay; remark: listed apart in the source
human MASP-2 [11] = target: T1, human MASP-2; assay: cell-based or functional assay; remark: listed apart in the source
[12] = target: T3, African Green monkey MASP-2 (in African …); assay: cell-based or functional assay; remark: listed apart in the source
[13] = target: rat MASP-2 (in rat serum) (rat, UniProt Q9JJS8 20-685); assay: cell-based or functional assay
[14] = target: T2, human MASP-2A (catalytically inactive …); assay: SPR (Biacore), scFv captured by anti-cMyc antibody, MASP-2A in solution
human MASP-2 [15] = target: T1, human MASP-2; assay: cell-based or functional assay; remark: listed apart in the source
[16] = target: T2, human MASP-2A (catalytically inactive …); assay: titration ELISA on coated human MASP-2A ('Binding affinity'), scFv
[17] = target: T2, human MASP-2A (catalytically inactive …); assay: Biacore, microscale-expressed scFv on MASP-2A coated CM5 chip
Experimental: Therefore, three different scFv libraries were constructed by PCR where the amino acid positions 1, 2 and 3 were randomized to the set of all possible 20 amino acids using degenerate codons. After cloning the libraries, microscale expression was performed and scFv binding was monitored on a MASP-2A coated CM5 chip (not shown).

[18] = target: T2, human MASP-2A (catalytically inactive …); assay: SPR (Biacore), scFv captured by anti-cMyc antibody, MASP-2A in solution; MASP-2 in solution, scFv captured (not immobilized MASP-2)

rat MASP-2 (in rat serum), sequence (Q9JJS8 other isoform, or with tags, fused parts or gaps limits assumed): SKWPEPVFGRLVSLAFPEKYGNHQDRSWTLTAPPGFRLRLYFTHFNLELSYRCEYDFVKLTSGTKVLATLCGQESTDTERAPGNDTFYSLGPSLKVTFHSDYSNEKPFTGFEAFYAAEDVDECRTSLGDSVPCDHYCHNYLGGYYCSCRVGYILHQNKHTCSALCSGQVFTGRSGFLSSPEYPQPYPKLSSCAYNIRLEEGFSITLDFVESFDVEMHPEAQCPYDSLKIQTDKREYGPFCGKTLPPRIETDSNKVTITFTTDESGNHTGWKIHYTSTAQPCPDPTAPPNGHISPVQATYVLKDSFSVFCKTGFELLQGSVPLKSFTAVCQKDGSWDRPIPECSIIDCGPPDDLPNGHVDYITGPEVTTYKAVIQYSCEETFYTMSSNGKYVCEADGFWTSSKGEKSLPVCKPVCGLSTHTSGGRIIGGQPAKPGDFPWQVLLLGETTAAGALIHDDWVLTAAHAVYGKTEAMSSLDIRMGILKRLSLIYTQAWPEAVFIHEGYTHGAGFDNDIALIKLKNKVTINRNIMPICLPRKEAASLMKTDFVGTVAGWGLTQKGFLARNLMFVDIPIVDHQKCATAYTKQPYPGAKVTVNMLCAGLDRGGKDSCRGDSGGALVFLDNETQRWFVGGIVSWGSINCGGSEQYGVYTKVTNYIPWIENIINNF
T1 sequence (O00187 16-686): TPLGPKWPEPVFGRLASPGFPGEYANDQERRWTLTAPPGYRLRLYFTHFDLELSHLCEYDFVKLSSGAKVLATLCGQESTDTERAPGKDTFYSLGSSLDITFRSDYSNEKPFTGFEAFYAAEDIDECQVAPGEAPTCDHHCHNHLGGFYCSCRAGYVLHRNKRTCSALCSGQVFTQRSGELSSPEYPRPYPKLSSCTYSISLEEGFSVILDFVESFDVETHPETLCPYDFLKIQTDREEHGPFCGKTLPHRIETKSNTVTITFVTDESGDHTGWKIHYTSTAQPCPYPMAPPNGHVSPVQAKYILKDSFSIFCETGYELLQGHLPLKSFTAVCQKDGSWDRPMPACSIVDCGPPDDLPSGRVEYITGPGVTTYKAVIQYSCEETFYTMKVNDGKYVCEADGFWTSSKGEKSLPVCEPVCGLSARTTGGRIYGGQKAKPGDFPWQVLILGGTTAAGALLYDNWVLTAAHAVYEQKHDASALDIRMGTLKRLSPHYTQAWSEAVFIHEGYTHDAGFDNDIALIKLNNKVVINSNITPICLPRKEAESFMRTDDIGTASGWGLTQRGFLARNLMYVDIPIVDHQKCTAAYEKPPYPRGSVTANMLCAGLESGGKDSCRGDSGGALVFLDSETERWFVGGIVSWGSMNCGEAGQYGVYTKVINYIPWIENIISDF
T2 sequence (O00187 16-686 S633A): as the sequence (O00187 16-686) above, with S618A counted along it

| Binder | Inhibitory activity in Human Serum IC50 (C3b deposition, 0.5% human serum) (human MASP-2 [2]) | EC50 (read off the curve) [3] | 1% human serum C3 assay IC50 (human MASP-2 [4]) | Functional IC50, C3b deposition, human serum Exp #1 (human MASP-2 [5]) | Functional IC50, C3b deposition, human serum Exp #2 (human MASP-2 [5]) | Functional IC50, C3b deposition, human serum Exp #3 (human MASP-2 [5]) | Functional IC50, C3b deposition, human serum Exp #4 (human MASP-2 [5]) | Functional IC50, C3b deposition, non-human primate serum Exp #1 [6] | Functional IC50, C3b deposition, non-human primate serum Exp #2 [6] | Kd [7] | Kd [8] | IC50, C3c release, 1% human serum (first experiment) (human MASP-2 [11]) | IC50, C3c release, 1% human serum (second experiment) (human MASP-2 [11]) | IC50, C3c release, 0.2% African Green serum (first experiment) [12] | IC50, C3c release, 0.2% African Green serum (second experiment) [12] | IC50, C3c release, 0.375% rat serum (second experiment) [13] | Complement assay IC50 (human MASP-2 [15]) | also measured |
| --- | --- | --- | --- | --- | --- | --- | --- | --- | --- | --- | --- | --- | --- | --- | --- | --- | --- | --- |
| B1 | 15.4 nM | ~0.9 nM | 68 nM | 15.4 nM | 65.4 nM | 24.8 nM | 19.2 nM | 95.6 nM | 58.8 nM | 18.9 nM | 3560 nM | 65.3 nM | 73.5 nM | 92.9 nM | 81.4 nM | 196 nM | 8.8 nM | C3 convertase assay using 1% human serum, IC50 (first experiment) (human MASP-2 [1]): 36.2 nM; C3 convertase assay using 1% human serum, IC50 (second experiment) (human MASP-2 [1]): 77.6 nM; C3 Assay IC50 in dilute serum (1%), human serum Exp #1 (human MASP-2 [9]): 19 nM; C3 Assay IC50 in dilute serum (1%), human serum Exp #2 (human MASP-2 [9]): 24 nM; C3 Assay IC50 in dilute serum (1%), human serum Exp #3 (human MASP-2 [9]): 65 nM; C3 Assay IC50 in dilute serum (1%), human serum mean (human MASP-2 [9]): 36 nM; C3 Assay IC50, non-human primate serum Exp #1 [10]: 95 nM; C3 Assay IC50, non-human primate serum Exp #2 [10]: 58 nM; C3 Assay IC50, non-human primate serum mean [10]: 76 nM; Kd [14]: 1.68 nM; Kd [16]: 18.9 nM |
| B2 |  |  |  |  |  |  |  |  |  |  |  |  |  |  |  |  |  | binding result [17]: binds |
| B3 | 22 nM |  |  | 22 nM | 46.3 nM | 62.2 nM | 38.4 nM | 115 nM | 203 nM |  | 8.4 nM |  |  |  |  |  |  | Kd [18]: 0.02 nM |
| B4 |  | ~0.8 nM | 48 nM |  |  |  |  |  |  | 48.6 nM |  | 39.9 nM | 57.7 nM | 63.8 nM | 81.1 nM | 141 nM | 10.3 nM | 90% human serum C3 assay IC50 (human MASP-2 [4]): 15 nM; 90% human serum C4 assay IC50 (human MASP-2 [4]): 230 nM; IC50, C3c release, 0.375% rat serum (first experiment) [13]: 79.3 nM |

From US20170088632A1 (OMEROS, published 2017)
